Key:
AP2-μ2 (APμ2-HA) = AP2-μ2 (APμ2-HA) (UniProt P84092); assay: biotin-peptide pull-down from lysate, Western blot; details: reference: unphosphorylated E7 13-28 peptide; sites T19,T20
PARD3 = PARD3 (UniProt Q8TEW0); assay: biotin-peptide pull-down from lysate, Western blot; details: reference: unphosphorylated E7 13-28 peptide; sites T19,T20
PTPN13 = PTPN13 (UniProt Q12923); assay: biotin-peptide pull-down from lysate, Western blot; details: reference: unphosphorylated E7 13-28 peptide; sites T19,T20
pRb = pRb (UniProt P06400); assay: biotin-peptide pull-down from lysate, Western blot; details: reference: unphosphorylated E7 13-28 peptide; sites T19,T20
IQGAP1 = IQGAP1 (UniProt P46940); assay: GST pull-down after in vitro phosphorylation; details: reference: GST-E7 not kinase-treated; sites T5,T7,T19,T20
PTPN14 = PTPN14 (UniProt Q15678); assay: GST pull-down after in vitro phosphorylation; details: reference: GST-E7 not kinase-treated; sites T5,T7,T19,T20

Substance | binding against the reference (AP2-μ2 (APμ2-HA)) | binding against the reference (PARD3) | binding against the reference (PTPN13) | binding against the reference (pRb) | binding against the reference (IQGAP1) | binding against the reference (PTPN14)
HPV16 E7 13-28 (from UniProt P03129) pT19/pT20 E7 13-28 peptide | stronger | gained | gained | stronger |  | 
HPV16 E7 (from UniProt P03129) GST-E7 phosphorylated with CKI and GSK3 |  |  |  |  | stronger | same

Source: article PMC10500460
